The record followed here is US20220323495A1 (NATIONAL RESEARCH COUNCIL OF CANADA, published 2022).

The target in test [1] is T1, EGFRvIII amino acid residues 15 to 37 with Val17 to Ala mutation, yeast-displayed (human, not fully specified).
T1 construct: The entry already carries the mutation
T1 peptide: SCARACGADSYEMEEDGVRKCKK
In words: flow cytometry on yeast displaying the mutated 15-37 fragment. An excerpt:
(§1) Assessment of the binding of anti-EGFRvIII monoclonal antibodies to the fusion proteins expressed on yeast cell surface was done by flow cytometry analysis. Yeast cells were labeled with both the anti-EGFRvIII monoclonal antibody and chicken anti-Myc antibody the latter being used to monitor the level of expression of the fusion protein. Following a wash step, binding of the primary antibodies is probed by a two-color indirect fluorescence labeling using a specific mouse and chicken secondary antibodies for each of the primary antibody respectively.
(§2) To further characterize mAb epitopes within the EGFRvIII 15-37 region, an alanine scan of this region was performed, and modified fragments were expressed at the surface of the yeast. […] The resulting DNAs were expressed at the surface of the yeast and each anti-EGFRvIII mAbs was tested on the corresponding yeast mutant strain by flow cytometry analysis. The original Ala19 and Ala22 were not mutated. Thus, this assay determined the contribution of each amino acid(s) in mAb binding in comparison to the original wild-type fragment (SEQ ID NO:5) which is attributed the value of 100%.
For orientation: Flow cytometry measures light scatter and fluorescence of single cells or particles in a stream.

Test [2] concerns the target T2, EGFRvIII amino acid residues 15 to 37 with Asp23 to Ala mutation, yeast-displayed (human, not fully specified).
T2 construct: The entry already carries the mutation
T2 peptide: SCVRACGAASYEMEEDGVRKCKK
The test is described as above.
Description: as §1, §2

Test [3] deals with T3, EGFRvIII amino acid residues 15 to 37 with Ser15 to Ala mutation, yeast-displayed (human, not fully specified).
T3 construct: The entry already carries the mutation
T3 peptide: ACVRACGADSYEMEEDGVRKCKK
Put plainly: flow cytometry on yeast displaying the Ala-mutated 15-37 fragment; normalized to Myc-tag; wild-type fragment = 100%.
Description: as §1, §2

The target of test [4] is T4, EGFRvIII amino acid residues 15 to 37 with Cys16 to Ala mutation, yeast-displayed (human, not fully specified).
T4 construct: The entry already carries the mutation
T4 peptide: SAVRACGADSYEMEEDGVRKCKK
Described as above.
Description: as §1, §2

The target in test [5] is T5, EGFRvIII amino acid residues 15 to 37 with Ser24 to Ala mutation, yeast-displayed (human, not fully specified).
T5 construct: The entry already carries the mutation
T5 peptide: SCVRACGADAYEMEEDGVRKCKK
Described as above.
Description: as §1, §2

Test [6] deals with T6, EGFRvIII amino acid residues 15 to 37 with Tyr25 to Ala mutation, yeast-displayed (human, not fully specified).
T6 construct: The entry already carries the mutation
T6 peptide: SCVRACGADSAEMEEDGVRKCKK
The description is as above.
Description: as §1, §2

Test [7] addresses T7, EGFRvIII amino acid residues 15 to 37 with Glu26 to Ala mutation, yeast-displayed (human, not fully specified).
T7 construct: The entry already carries the mutation
T7 peptide: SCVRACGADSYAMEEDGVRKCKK
Described as above.
Description: as §1, §2

The target of test [8] is T8, EGFRvIII amino acid residues 15 to 37 with Glu28 to Ala mutation, yeast-displayed (human, not fully specified).
T8 construct: The entry already carries the mutation
T8 peptide: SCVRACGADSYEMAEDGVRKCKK
The description is as above.
Description: as §1, §2

For test [9], the target named is T9, EGFRvIII amino acid residues 15 to 37 with Asp30 to Ala mutation, yeast-displayed (human, not fully specified).
T9 construct: The entry already carries the mutation
T9 peptide: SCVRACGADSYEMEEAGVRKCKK
The test is described as above.
Description: as §1, §2

Test [10] deals with T10, EGFRvIII amino acid residues 15 to 37 with Gly31 to Ala mutation, yeast-displayed (human, not fully specified).
T10 construct: The entry already carries the mutation
T10 peptide: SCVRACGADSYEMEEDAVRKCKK
Described as above.
Description: as §1, §2

Test [11] has as its target T11, EGFRvIII amino acid residues 15 to 37 with Val32 to Ala mutation, yeast-displayed (human, not fully specified).
T11 construct: The entry already carries the mutation
T11 peptide: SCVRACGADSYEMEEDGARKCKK
The test is described as above.
Description: as §1, §2

Test [12] has as its target T12, EGFRvIII amino acid residues 15 to 37 with Arg33 to Ala mutation, yeast-displayed (human, not fully specified).
T12 construct: The entry already carries the mutation
T12 peptide: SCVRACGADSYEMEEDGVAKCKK
The description is as above.
Description: as §1, §2

Test [13] has as its target T13, EGFRvIII amino acid residues 15 to 37 with Lys36 to Ala mutation, yeast-displayed (human, not fully specified).
T13 construct: The entry already carries the mutation
T13 peptide: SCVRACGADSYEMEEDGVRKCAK
The description is as above.
Description: as §1, §2

In test [14] the target is T14, EGFRvIII amino acid residues 15 to 37 with Lys37 to Ala mutation, yeast-displayed (human, not fully specified).
T14 construct: The entry already carries the mutation
T14 peptide: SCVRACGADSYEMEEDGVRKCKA
Described as above.
Description: as §1, §2

The target of test [15] is T6, EGFRvIII amino acid residues 15 to 37 …. In words: flow cytometry on yeast displaying the mutated 15-37 fragment.
Description: as §1, §2

In test [16] the target is T7, EGFRvIII amino acid residues 15 to 37 …. The test is described as above.
Description: as §1, §2

For test [17], the target named is T1, EGFRvIII amino acid residues 15 to 37 …. Put plainly: flow cytometry on yeast displaying the Ala-mutated 15-37 fragment; normalized to Myc-tag; wild-type fragment = 100%.
Description: as §1, §2

Test [18] deals with T2, EGFRvIII amino acid residues 15 to 37 …. Described as above.
Description: as §1, §2

B1: F265-5B7 anti-EGFRvIII monoclonal antibody (antibody, V domains shown)
VH: QIQLVQSGPELKKPGETVMISCKASGYSFTNYGMNWVKQAPEKDLKWMGWINTYTGESRYVDEFKGRFAFSLETSVSIVYLKINNLKNEDMATYFCARGPNFDVWGTGTTVTVSS
VL: not shown
notes: Mouse hybridoma IgG, tested as supernatant or Protein G purified mAb; also called 5B7-2
Take B1: the binding result in test [1] and in test [2] was “no binding” each time. The “% of binding compared to the wild-type sequence” value (from here on “% of binding”) in test [3] came to 91.6%; in test [4], 240%; in test [5], 230%; in test [6] it was 192%; in test [7], 140%; in [8] it was 78.5%. Besides, the “% of binding” value in [9] amounted to 106%; in test [10], 98.9%; in test [11] it was 101%; in test [12], 95.8%; in test [13], 87.2%; in [14], 143%.

B2: F269-3D12 anti-EGFRvIII monoclonal antibody (antibody, V domains shown)
VH: EVQLQQSGPELVKPGSSVRISCKASGYTFTDYNMDWVKQSHGKSLEWIGTINPNNGGTSYNQKFKGKATLTVDKSSSTAYMELRSLTSEDSAVYYCARVRQLGLWFAYWGQGTLVTVSA
VL: EIVLTQSPALMAASPGEKVTITCSVSSSISSSNLHWYQQKSETSPKPWIYGTSNLASGVPVRFSGSGSGTSYSLTISSMEAEDAATYYCQQWSSYPLTFGSGTKLEIK
notes: Mouse hybridoma IgG, tested as supernatant or Protein G purified mAb; also called 3D12-2
Take B2: the binding result in test [15] and in [16] was “no binding” in each case. The “% of binding” value in test [3] was determined as 90.2%; in test [4] it was 171%; in test [17], 116%; in test [18], 62.4%; in [5], 233%; in test [8], 71%. Also, the “% of binding” value is 78.5% in test [9]; 93.8% in [11]; 22.1% in test [12]; 95.1% in [13]; 162% in [14].
